From patent US20110159022A1, “Immunogenic Peptides Derived from the Midkine Protein, as an Anticancer Vaccine” (priority 2008, published 2011)
Where no end group is shown, it is not given here.

Target: T1, HLA-DR13 (DRB1*1301) (human)
T1 chain 1: not shown
T1 chain 2: not shown
Experiment: competition ELISA, nonbiotinylated reference peptide against its biotinylated tracer

IC50: 39 nM
Binder: TERVRLVTRHIYNREE (not fully specified) [B1 21-36 (nonbiotinylated reference peptide)]
